Test results from publication PMC3854527.

Experiments:
Sub2p wt = target: T1, Sub2p wt (Saccharomyces cerevisiae, UniProt Q07478 1-446); test: EMSA
T1 sequence: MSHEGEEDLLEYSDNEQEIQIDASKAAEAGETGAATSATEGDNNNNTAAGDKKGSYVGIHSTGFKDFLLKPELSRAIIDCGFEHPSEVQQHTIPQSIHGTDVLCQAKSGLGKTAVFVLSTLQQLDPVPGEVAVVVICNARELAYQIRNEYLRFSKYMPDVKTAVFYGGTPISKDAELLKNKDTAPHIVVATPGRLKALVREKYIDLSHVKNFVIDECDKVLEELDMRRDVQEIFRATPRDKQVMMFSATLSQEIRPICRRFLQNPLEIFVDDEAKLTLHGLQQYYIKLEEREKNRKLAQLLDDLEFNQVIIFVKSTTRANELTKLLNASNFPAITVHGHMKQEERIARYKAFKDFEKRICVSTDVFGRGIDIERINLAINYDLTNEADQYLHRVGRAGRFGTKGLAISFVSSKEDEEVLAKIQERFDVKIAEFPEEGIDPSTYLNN

Sub2p Y12S = target: T2, Sub2p Y12S (Saccharomyces cerevisiae, UniProt Q07478 1-446, Y12S); test: EMSA
T2 sequence: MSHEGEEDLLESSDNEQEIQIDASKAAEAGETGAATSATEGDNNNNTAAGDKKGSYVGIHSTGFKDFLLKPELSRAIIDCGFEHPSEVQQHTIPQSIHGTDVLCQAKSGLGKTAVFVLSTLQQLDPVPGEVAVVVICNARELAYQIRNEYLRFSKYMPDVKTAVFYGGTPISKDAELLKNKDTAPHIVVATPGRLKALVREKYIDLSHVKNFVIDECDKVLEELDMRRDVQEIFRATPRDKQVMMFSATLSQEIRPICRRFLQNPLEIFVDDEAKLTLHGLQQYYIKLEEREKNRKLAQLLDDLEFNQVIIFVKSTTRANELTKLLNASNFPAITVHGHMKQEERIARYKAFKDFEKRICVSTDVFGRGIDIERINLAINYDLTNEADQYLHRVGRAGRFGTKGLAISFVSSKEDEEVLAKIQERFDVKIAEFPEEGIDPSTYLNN

B1: 13-mer ssRNA (ssRNA)
RNA: AGCACCGUAAAGC
Sub2p wt
  binding result: binds
Sub2p Y12S
  binding result: binds
